Test results from patent US20240197828A1, “Chimeric molecule to treat sepsis and other inflammatory conditions” (THE FEINSTEIN INSTITUTES FOR MEDICAL RESEARCH, priority 2022, published 2024).

Legend:
RAW264.7 macrophages = test: Intracellular uptake of FITC-rmCIRP by macrophages (flow cytometry, confocal microscopy); type: cell-based, mouse
Protocol: FIG. 3. Effects of MOP peptides MOP-3, MOP-8 and MOP-14 on eCIRP. Flow cytometry experiment whereby RAW264.7 macrophages were treated for 1 hour according to respective group: PBS (volume-equivalent), FITC-rmCIRP (1 μg/mL), or a mixture of FITC-rmCIRP (1 μg/mL) with each respective peptide (10 μg/mL) after co-incubating for 30 minutes. Intracellular FITC-rmCIRP was analyzed by flow cytometry. Median fluorescence intensity (MFI) reported as percentage relative to PBS-treated RAW264.7 cells. Data from two independent experiments are expressed as mean±SEM and compared by one-way ANOVA and SNK test. *p<0.05 vs. PBS, #p<0.05 vs. eCIRP.
Computational modeling was used to determine the likely domain of MFG-E8's binding to eCIRP. The known amino acid (AA) sequence of this domain was used to develop and test potential therapeutic peptides. An MFG-E8 derived oligopeptide, MOP3, was developed based on 15 AA from MFG-E8 discoidin 2 domain (mimicking MFG-E8's C-terminal) and tagged with the 3 AA, RGD, (mimicking MFG-E8's binding capacity for the integrin receptor at the N-terminal). Binding of MOP3 to CIRP was quantified using Surface Plasmon Resonance (SPR) analysis. Macrophages (RAW264.7 cells) were treated with FITC-recombinant mouse (rm)-CIRP or co-incubated MOP3 and FITC-rmCIRP with and without a. Br-integrin Ab. After 1 h, cells were fixed and analyzed for intracellular FITC-rmCIRP by flow cytometry. Macrophages were stimulated with rmCIRP or co-incubated mixture of MOP3 and rmCIRP. After 4 h, cell culture supernatants were analyzed for inflammatory cytokine, TNFα.
Mouse macrophage cell line, RAW264.7 cells were obtained from American Type Culture Collection (ATCC) and cultured in DMEM media with 10% FBS, 1% penicillin and streptomycin, and 1% glutamine. Cells were kept in 37° C. incubator under humidified conditions containing 5% CO2.
rmCIRP was labeled using a FITC Conjugation Kit (Abcam, ab188285), and rmMFG-E8 was labeled using Alexa Fluor Conjugation Kit (Abcam, ab269821), both according to respective manufacturer's instructions.
In order to visualize cellular uptake, we initially utilized TRITC-BSA as an internal probe, as BSA is taken up into cells primarily by endocytosis and retained intracellularly after fixation (27, 28). For further visualization of intracellular localization, we utilized LAMP1 primary antibody (as it is distributed among endolysosomal organelles and serves as a marker for lysosomal compartments) (29), and utilized lysotracker in live cell experiments (as it allows for imaging of dynamics of lysosome vesicle movements) (30). […] Images were quantified and analyzed using Image J, FIJI.(31) Flow cytometry. […]

RAW264.7 cells = test: eCIRP-induced cytokine release in RAW264.7 cells (ELISA of supernatants); type: cell-based, mouse; settings: RAW264.7, rmCIRP 1 μg/mL, 4 hours
Protocol: FIG. 2. Effects of MOP peptides on TNFα levels. RAW264.7 macrophages were cultured and treated with either volume-equivalent PBS, recombinant murine (rm) CIRP (eCIRP; 1 μg/mL), or rmCIRP with each respective peptide (10 μg/mL). After 4 hours, cell supernatants were assessed for TNFα levels by ELISA. Experiments were performed 3 times, and all data were used for analysis. Data are expressed as mean±SEM and compared by one-way ANOVA and SNK test. *p<0.05 vs. PBS, #p<0.05 vs. eCIRP.
FIG. 4. eCIRP-induced inflammation is attenuated by MOP3. RAW264.7 cells were treated according to respective groups: PBS (volume equivalent), rmCIRP (1 μg/mL), or rmCIRP with MOP3 at increasing doses. After 4 hours, cell supernatants were analyzed for TNFα levels by ELISA. […] Data are expressed as mean #SEM and compared by one-way ANOVA and SNK test. *p<0.05 vs. PBS, #p<0.05 vs. eCIRP.
Computational modeling was used to determine the likely domain of MFG-E8's binding to eCIRP. […] Binding of MOP3 to CIRP was quantified using Surface Plasmon Resonance (SPR) analysis. […] After 1 h, cells were fixed and analyzed for intracellular FITC-rmCIRP by flow cytometry. […] After 4 h, cell culture supernatants were analyzed for inflammatory cytokine, TNFα. […]
The mouse macrophage cell culture supernatants were analyzed for cytokine levels using ELISA kits (BD Biosciences, CA). […]

B1: milk fat globule-epidermal growth factor—factor VIII (protein, listed as Mus musculus)
chain: MQVSRVLAALCGMLLCASGLFAASGDFCDSSLCLNGGTCLTGQDNDIYCLCPEGFTGLVCNETERGPCSPNPCYNDAKCLVTLDTQRGDIFTEYICQCPVGYSGIHCETETNYYNLDGEYMFTTAVPNTAVPTPAPTPDLSNNLASRCSTQLGMEGGAIADSQISASSVYMGFMGLQRWGPELARLYRTGIVNAWTASNYDSKPWIQVNLLRKMRVSGVMTQGASRAGRAEYLKTFKVAYSLDGRKFEFIQDESGGDKEFLGNLDNNSLKVNMFNPTLEAQYIKLYPVSCHRGCTLRFELLGCELHGCSEPLGLKNNTIPDSQMSASSSYKTWNLRAFGWYPHLGRLDNQGKINAWTAQSNSAKEWLQVDLGTQRQVTGIITQGARDFGHIQYVASYKVAHSDDGVQWTVYEEQGSSKVFQGNLDNNSHKKNIFEKPFMARYVRVLPVSWHNRITLRLELLGC
- FITC-eCIRP uptake (confocal fluorescence microscopy) (RAW264.7 macrophages; RAW264.7, 4 hours, vs FITC-eCIRP alone): marked increase of FITC-eCIRP uptake
- intracellular FITC-rmCIRP uptake (flow cytometry) (RAW264.7 macrophages; RAW264.7, FITC-rmCIRP 1 μg/mL co-incubated with test substance (peptide 10 μg/mL), 1 hour, vs FITC-rmCIRP alone): enhanced internalization of FITC-eCIRP
- intracellular FITC-eCIRP with αvβ3-integrin neutralizing antibody (confocal fluorescence microscopy) (RAW264.7 macrophages; RAW264.7, vs IgG isotype control): remarkably reduced
- intracellular FITC-rmCIRP uptake with αvβ3-integrin blocking antibody (flow cytometry) (RAW264.7 macrophages; RAW264.7, αvβ3-integrin antibody 0.5 μg/mL): significantly reduced
- IL-6 levels in cell supernatants (RAW264.7 cells; vs eCIRP alone): attenuated these levels in a dose-dependent manner
- TNFα levels in cell supernatants (RAW264.7 cells; vs rmCIRP alone): attenuated these levels in a dose-dependent manner
